Laboratory results published in patent publication US6365126.

B1: human p120GAP catalytic domain fusion protein (protein)
chain: MEKIMPEEEYSEFKELILQKELHVVYALSHVCGQDRTLLASILLRIFLHEKLESLLLCTLNDREISMEDEATTLFRATTLASTLMEQYMKATATQFVHHALKDSILKIMESKQSCELSPSKLEKNEDVNTNLTHLLNILSELVEKIFMASEILPPTLRYIYGCLQKSVQHKWPTNTTMRTRVVSGFVFLRLICPAILNPRMFNIISDSPSPIAARTLILVAKSVQNLANLVEFGAKEPYMEGVNPFIKSNKHRMIMFLDELGNVPELPDTTEHSRTDLSRDLAALHEICVAHSDELRTLSNERGAQQHVLKKLLAITELLQQKQNQYTKTNDVR
B2: Drosophila NF1 catalytic domain (amino acids 1,235-1,614) bacterial fusion protein (protein)
chain: TEFDTLAETVLADRFEQLVQLVTMISDKGELPIAMALANVVTTSQMDELARVLVTLFDAKHLLSPLLWNMFYREVEVSDCMQTLFRGNSLGSKIMAFCFKIYGASYLQMLLEPLIRPLLDEEEETCFEVDPARLDPTEDIEQHRNNLIALTQKVFDAIINSSDRFPPQLRSMCHCLYQVLSKRFPNLLQNNIGAVGTVIFLRFINPAIVSPQELGIVDKQVHSSAKRGLMLMSKILQNIANHVEFSKEQHMLCFNDFLRDHFEAGRRFFIQIASDCETVDQTSHSMSFISDANVLALHRLLWTHQEKIGDYLSSSRDHKAVGRRPFDKMATLLAYLGPPEHKPVDSHMMFSSYARWSSIDMSSTNFEEIMVKHQMHEKEE

Molecular target: H-Ras, P01112
Sequence (P01112 whole entry, looked up): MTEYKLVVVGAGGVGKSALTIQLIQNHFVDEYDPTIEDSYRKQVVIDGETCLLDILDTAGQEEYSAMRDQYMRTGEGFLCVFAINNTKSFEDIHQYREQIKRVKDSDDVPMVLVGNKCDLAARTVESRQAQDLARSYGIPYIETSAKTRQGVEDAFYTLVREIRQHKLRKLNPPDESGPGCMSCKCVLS

Protein | GTPase activity of H-Ras (GAP assay)
B1 | All three fusion proteins stimulated the GTPase activity of H-Ras
B2 | All three fusion proteins stimulated the GTPase activity of H-Ras
